Measured values: PMC9871336, “Positive charge in the K-loop of the kinesin-3 motor KIF1A regulates superprocessivity by enhancing microtubule affinity in the one-head–bound state” (The Journal of Biological Chemistry, 2022)

Columns and labels:
1A-K1L12 = system: T1, 1A-K1L12; test: stopped-flow ATP-triggered half-site release of mant-ADP; type: biochemical, Rattus norvegicus; conditions: taxol-stabilized microtubules; 1HB complex with mant-ADP; Mg-ATP varied; half-maximal ATP for mant-ADP release, not steady-state ATPase
T1 construct: gene Kif1a; fused to D. melanogaster KHC neck-coil for dimerization; C-terminal His6; E. coli

[1] = substrate: Nc1ncnc2c1ncn2[C@@H]1O[C@H](COP(=O)(O)OP(=O)(O)OP(=O)(O)O)[C@@H](O)[C@H]1O; test: as above; type: biochemical, Rattus norvegicus; conditions: taxol-stabilized microtubules; 1HB complex with mant-ADP; Mg-ATP varied; half-maximal ATP for mant-ADP release, not steady-state ATPase

| Molecule | Km (1A-K1L12) [µM] | Km [1] [µM] |
| --- | --- | --- |
| Nc1ncnc2c1ncn2[C@@H]1O[C@H](COP(=O)(O)OP(=O)(O)OP(=O)(O)O)[C@@H](O)[C@H]1O [ATP] | 64 ± 28 | – |
| 1A368 (Rattus norvegicus) (protein, KIF1A 1-368 (motor, neck linker) fused to D. melanogaster KHC neck-coil 345-406 for dimerization (biochemical version; 345-560 plus GFP for single-molecule); C-terminal His6; E. coli; dimer) MAGASVKVAVRVRPFNSREMSRDSKCIIQMSGSTTTIVNPKQPKETPKSFSFDYSYWSHTSPEDINYASQKQVYRDIGEEMLQHAFEGYNVCIFAYGQTGAGKSYTMMGKQEKDQQGIIPQLCEDLFSRINDTTNDNMSYSVEVSYMEIYCERVRDLLNPKNKGNLRVREHPLLGPYVEDLSKLAVTSYNDIQDLMDSGNKARTVAATNMNETSSRSHAVFNIIFTQKRHDAETNITTEKVSKISLVDLAGSERADSTGAKGTRLKEGANINKSLTTLGKVISALAEMDSGPNKNKKKKKTDFIPYRDSVLTWLLRENLGGNSRTAMVAALSPADINYDETLSTLRYADRAKQIRCNAIINEDPNNKL | – | 119 ± 20 |
| 1A393 (Rattus norvegicus) (protein, KIF1A 1-393 (motor, neck linker, neck-coil) fused to D. melanogaster KHC neck-coil 345-406 for dimerization (biochemical version; 345-560 plus GFP for single-molecule); C-terminal His6; E. coli; dimer) MAGASVKVAVRVRPFNSREMSRDSKCIIQMSGSTTTIVNPKQPKETPKSFSFDYSYWSHTSPEDINYASQKQVYRDIGEEMLQHAFEGYNVCIFAYGQTGAGKSYTMMGKQEKDQQGIIPQLCEDLFSRINDTTNDNMSYSVEVSYMEIYCERVRDLLNPKNKGNLRVREHPLLGPYVEDLSKLAVTSYNDIQDLMDSGNKARTVAATNMNETSSRSHAVFNIIFTQKRHDAETNITTEKVSKISLVDLAGSERADSTGAKGTRLKEGANINKSLTTLGKVISALAEMDSGPNKNKKKKKTDFIPYRDSVLTWLLRENLGGNSRTAMVAALSPADINYDETLSTLRYADRAKQIRCNAIINEDPNNKLIRELKDEVTRLRDLLYAQGLGDITD | – | 96 ± 53 |
